These results are taken from PMC6719858, “Mitochondrial single-stranded DNA binding protein novel de novo SSBP1 mutation in a child with single large-scale mtDNA deletion (SLSMD) clinically manifesting as Pearson, Kearns-Sayre, and Leigh syndromes” (PLoS ONE, 2019).

As a reminder, the stoichiometry N is the number of molecules, sites or subunits per partner or assembly.

One data set deals with T1, SSBP1 WT (mtSSB) (human, UniProt Q04837 17-148).
T1 sequence: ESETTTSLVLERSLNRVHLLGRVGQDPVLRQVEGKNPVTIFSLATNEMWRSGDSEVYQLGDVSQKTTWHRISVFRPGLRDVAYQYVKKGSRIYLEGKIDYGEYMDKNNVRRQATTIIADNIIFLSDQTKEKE
Briefly: fluorescence anisotropy; 5 mM MgCl2; apparent Kd, protein as tetramer; 20 nM DNA; quadratic fit; 30 mM HEPES-KOH pH 7.6, 50 mM KCl, 2 mM DTT, 5 mM MgCl2, 20 nM FAM-oligonucleotide, 37 C. To be noted: protein: recombinant; chain copies: 4; label: 3' FAM (fluorescein); single strand.

Another data set deals with T2, SSBP1 p.E27K (human, UniProt Q04837 17-148, E27K).
T2 sequence: T1 sequence with E11K
Briefly: fluorescence anisotropy; 5 mM MgCl2; apparent Kd, protein as tetramer; 20 nM DNA; quadratic fit; plateau anisotropy about 1.4-fold higher than WT; 30 mM HEPES-KOH pH 7.6, 50 mM KCl, 2 mM DTT, 5 mM MgCl2, 20 nM FAM-oligonucleotide, 37 C. To be noted: protein: recombinant; chain copies: 4; label: 3' FAM (fluorescein); single strand.

Data set [1] deals with the molecule itself. Briefly: SEC; Superdex 200 10/300 GL, AKTA FPLC, Storage Buffer (30 mM HEPES-KOH pH 7.6, 250 mM KCl, 0.25 mM EDTA, 2 mM dithiothreitol, 10% glycerol); purified recombinant protein; single peak read as tetramer.

Where a chain is given by its changes, count along the chain named. Names and notes keep the numbering of the source.

B1: FAM-labeled 50 nt ssDNA (ssDNA)
DNA: AATGCTATCACTATTCGTAGACTTGACCACACCTTGTCAGCTCACGCTCC
Regarding B1, the Kd with SSBP1 WT (mtSSB) amounted to 2.3 nM; with SSBP1 p.E27K, 9.3 nM.

B2: wild-type human mitochondrial single-stranded DNA-binding protein (SSBP1) (natural protein, UniProt Q04837 17-148, looked up)
chain: T1 sequence
notes: No tag is mentioned; also called WT SSBP1; HmtSSB; source: E. coli BL21(DE3), purified (Affi-Gel Blue, MonoQ, Superdex 200)
On to B2, for which, in data set [1], the “stoichiometry N” value turned out to be 4.

B3: p.E27K human mitochondrial single-stranded DNA-binding protein (SSBP1) (natural protein, UniProt Q04837 17-148, looked up)
chain: T1 sequence with E11K
notes: Homotetramer of four mutant chains; The variant was found de novo in a patient; No tag is mentioned; also called p.E27K SSBP1; E27K SSBP1; source: E. coli BL21(DE3), purified (Affi-Gel Blue, MonoQ, Superdex 200)
For B3, the “stoichiometry N” value in data set [1] was determined as 4.
